Measurements reported in IntAct's records for PubMed 22184064.

B1: Cyclin-Y (Homo sapiens), Q8ND76-1 (parent)
chain: MGNTTSCCVSSSPKLRRNAHSRLESYRPDTDLSREDTGCNLQHISDRENIDDLNMEFNPSDHPRASTIFLSKSQTDVREKRKSLFINHHPPGQIARKYSSCSTIFLDDSTVSQPNLKYTIKCVALAIYYHIKNRDPDGRMLLDIFDENLHPLSKSEVPPDYDKHNPEQKQIYRFVRTLFSAAQLTAECAIVTLVYLERLLTYAEIDICPANWKRIVLGAILLASKVWDDQAVWNVDYCQILKDITVEDMNELERQFLELLQFNINVPSSVYAKYYFDLRSLAEANNLSFPLEPLSRERAHKLEAISRLCEDKYKDLRRSARKRSASADNLTLPRWSPAIIS

Variants of: B1
Conditions: with cdk16_human CDK16, Q00536
Chain of cdk16_human CDK16, Q00536 (Q00536 whole entry): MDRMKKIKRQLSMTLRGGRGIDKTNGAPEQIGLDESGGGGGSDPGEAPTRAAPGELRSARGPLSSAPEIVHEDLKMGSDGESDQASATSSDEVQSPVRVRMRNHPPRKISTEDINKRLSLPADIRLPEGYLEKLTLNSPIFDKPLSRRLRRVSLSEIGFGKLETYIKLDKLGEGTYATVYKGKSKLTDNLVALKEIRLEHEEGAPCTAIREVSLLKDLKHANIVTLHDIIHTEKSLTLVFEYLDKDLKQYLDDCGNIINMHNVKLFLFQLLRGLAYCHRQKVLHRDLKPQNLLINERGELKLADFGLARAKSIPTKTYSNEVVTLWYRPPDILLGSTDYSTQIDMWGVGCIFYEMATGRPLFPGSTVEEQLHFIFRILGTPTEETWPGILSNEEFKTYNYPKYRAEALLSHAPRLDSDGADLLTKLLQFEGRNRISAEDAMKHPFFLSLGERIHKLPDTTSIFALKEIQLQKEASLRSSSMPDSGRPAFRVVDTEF
With MGNTTSCCVSSSPKLRRNAHSRLESYRPDTDLSREDTGCNLQHISDRENIDDLNMEFNPSDHPRASTIFLSKSQTDVREKRKSLFINHHPPGQIARKYSSCSTIFLDDSTVSQPNLKYTIKCVALAIYYHIKNRDPDGRMLLDIFDENLHPLSKSEVPPDYDKHNPEQKQIYRFVRTLFSAAQLTAECAIVTLVYLERLLTYAEIDICPANWKRIVLGAILAAAKVWDDQAVWNVDYCQILKDITVEDMNELERQFLELLQFNINVPSSVYAKYYFDLRSLAEANNLSFPLEPLSRERAHKLEAISRLCEDKYKDLRRSARKRSASADNLTLPRWSPAIIS [L222A;S224A] the “effect of a mutation on the interaction” value was “decreasing interaction strength”.

Variants of: B1
Conditions: with cdk16_human CDK16, Q00536
Remark: another data set of the same source
MGNTTSCCVSSSPKLRRNAHSRLESYRPDTDLSREDTGCNLQHISDRENIDDLNMEFNPSDHPRASTIFLSKSQTDVREKRKSLFINHHPPGQIARKYSSCSTIFLDDSTVSQPNLKYTIKCVALAIYYHIKNRDPDGRMLLDIFDENLHPLSKSEVPPDYDKHNPEQKQIYRFVRTLFSAAQLTAECAIVTLVYLERLLTYAEIDICPANWKRIVLGAILAAAKVWDDQAVWNVDYCQILKDITVEDMNELERQFLELLQFNINVPSSVYAKYYFDLRSLAEANNLSFPLEPLSRERAHKLEAISRLCEDKYKDLRRSARKRSASADNLTLPRWSPAIIS [L222A;S224A] was tested, and the “effect of a mutation on the interaction” value was “disrupting interaction strength”.
